Article PMC4141209

Substrate: O=C(O)[C@H]1NCC[C@@H]1O
Experiment: purified protein
Details: pH 8.0 Tris-HCl, 50 °C, 0.15 mM NADH, TlLhpI as coupling enzyme

B1: TlLhpH (Thermococcus litoralis DSM 5473) (protein)
chain: MFKKLENLEKWEPPKDWMVIKTLDTHTAGEPLRIILSGFPEIPGKTILEKRRYLMENLDHLRKALMWEPRGHADMYGAIITEPVSEEADFGVIFMHNEGYSTMCGHATIALGKVAVECGLVEAKEPITEIKMDSPAGLIKIYVKVRDGKVEKVYFHNVPSFVLFKDETINVPGIGEVKYDLAYGGAFYAFVNAEEIGLKCTPEYYRQLIDVGMKIKRAIMSEKEIRHPFEEDLSFLYGTIFIGEPEDENSHSRHVCIFADGEVDRSPTGTGVSARLAILYEKGEIDIGEEITIESIIGTKFTGKVVEETRYGLYRAIIPEVGGNAYIVAKNTFLIDPQDPLKYGFFLR
- Km: 288 µM
- kcat: 28.5 s⁻¹
